Where two headings read alike, the source gives them in different places.
How the values were obtained:
[1] = biological target: T1, Human VEGFA165 (human, UniProt P15692-4 27-191); assay: cell-based or functional assay
[2] = biological target: T1, Human VEGFA165; assay: SPR Biacore 8K, VEGFA165 amine-coupled on CM5, nanobody as analyte, 1:1 model
[3] = biological target: T1, Human VEGFA165; assay: competition ELISA on coated VEGFA, competitor VEGFR2-ECD-Fc 2 nM
[4] = biological target: T1, Human VEGFA165; assay: SPR, VEGFA165 on CM5
[5] = biological target: T1, Human VEGFA165; assay: ELISA, VEGFA coated 0.3 µg/mL, anti-His detection
[6] = biological target: T1, Human VEGFA165; assay: phage ELISA, VEGFA coated 0.5 µg/mL, anti-M13(HRP)
[7] = biological target: 3% milk powder (negative control); assay: phage ELISA, 3% milk powder coated (negative control), anti-M13(HRP)
[8] = biological target: T1, Human VEGFA165; assay: SPR Biacore 8K, VEGFA165 amine-coupled on CM5, nanobody as analyte, 1:1 model; remark: listed apart in the source
[9] = biological target: T1, Human VEGFA165; assay: competition ELISA on coated VEGFA, competitor VEGFR2-ECD-Fc 1 nM
[10] = biological target: T1, Human VEGFA165; assay: as above; remark: listed apart in the source

T1 sequence (P15692 other isoform, or with tags, fused parts or gaps limits assumed): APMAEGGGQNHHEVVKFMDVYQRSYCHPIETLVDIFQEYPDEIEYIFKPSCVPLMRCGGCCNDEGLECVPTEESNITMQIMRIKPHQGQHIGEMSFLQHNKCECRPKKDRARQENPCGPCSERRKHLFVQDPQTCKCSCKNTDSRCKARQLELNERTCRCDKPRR

Molecule	IC50 [3] [nM]	Maximum inhibition rate (%) [3] [%]	IC50 [9] [nM]	Maximum inhibition rate (%) [9] [%]	further results
negative control antibody (nanobody binding to an irrelevant antigen) (VHH)					Maximum inhibition rate (%) of HUVEC proliferation [1]: 0%
V1-2m (VHH, Humanized V1) VHH: EVQLVESGGGLVQPGGSLRLSCAASGRTFSSYTMGWFRQAPGKEREFVVAISKGGYKYDSVSLEARFTISRDNSKNTVYLQMNSLRPEDTAVYYCAATRAYGSSRLRLADTYEYWGQGTLVTVSS					Kd [2]: 0.243 nM; koff [2]: 8.24e-05 s⁻¹; kon [2]: 339000 M⁻¹ s⁻¹
V1-4m (VHH, Humanized V1) VHH: EVQLVESGGGLVQPGGSLRLSCAASGRTFSSYTMGWFRQAPGKEREFVVAISKGGYKYDSVSLEARFTISRDNAKNTVYLQMNSLRPEDTAVYYCASTRAYGSSRLRLADTYEYWGQGTLVTVSS	26.1	93			
V1-com-74-78-97 (VHH, Humanized V1) VHH: EVQLVESGGGLVQPGGSLRLSCAASGRTFSSYTMGWFRQAPGKEREFVVAISKGGYKYDSVSLEARFTISRDNAKNTVYLQMNSLRAEDTAVYYCASTRAYGSSRLRLADTYEYWGQGTLVTVSS	20	94.4			
V41 (VHH, Purified with C-terminal GGGGS-6×His) VHH: QLQLVESGGGSVQPGGSLRLSCEVSGRTFSSYTMGWFRQAPGKEREFVVAISKGGYKYDSVSLEARFTISKDNTKNTVYLQMNSLKPEDTAVYYCAGTRAYGSSRLRLAKTYEYWGQGTQVTVSS					fold difference of KD from the positive control BI-VEGF ab [4]: < 3 fold; EC50 [5]: 0.57 nM; OD450 [6]: 2.77 OD450; OD450 [7]: 0.0359 OD450; Kd [8]: 0.482 nM; koff [8]: 0.00016 s⁻¹; kon [8]: 331000 M⁻¹ s⁻¹
V13-4m (VHH, Humanized V13) VHH: EVQLVESGGGLVQPGGSLRLSCAASGRTFTSYTMGWFRQAPGKEREFVVAISKGGYKYDAVSLEARFTISRDNAKNTVYLQMNSLRPEDTAVYYCAGTRAYGSSRLRLADTYEYWGQGTLVTVSS	26.8	89.2			
V1-com-78 (VHH, Humanized V1) VHH: EVQLVESGGGLVQPGGSLRLSCAASGRTFSSYTMGWFRQAPGKEREFVVAISKGGYKYDSVSLEARFTISRDNSKNTVYLQMNSLRAEDTAVYYCAATRAYGSSRLRLADTYEYWGQGTLVTVSS	28.5	93.7			Kd [2]: 0.257 nM; koff [2]: 8.91e-05 s⁻¹; kon [2]: 347000 M⁻¹ s⁻¹
V43-1H-78 (VHH, Humanized V43) VHH: EVQLVESGGGLVQPGGSLRLSCAASGRTFSSYTMGWFRQAPGKEREFVVAISKGGYKYDSVSLEARFTISRDNSKNTVYLQMNSLRAEDTAVYYCAATRAYGSSRLRLANTYEYWGQGTLVTVSS			5.62	95.5	
V29 (VHH, Purified with C-terminal GGGGS-6×His) VHH: QLQLVESGGGSVQPGGSLRLSCEVSGRTFSSYTMGWFRQAPGKEREFVVAISKGGYKYDSVSLEARFTISKDNTKNTVYLQMNSLKPEDTAVYYCAGTRAYGSSRLRLANTYEYWGQGTQVTVSS					fold difference of KD from the positive control BI-VEGF ab [4]: < 3 fold; EC50 [5]: 0.77 nM; OD450 [6]: 2.69 OD450; OD450 [7]: 0.0553 OD450; IC50 [10]: 2.98 nM; Maximum inhibition rate (%) [10]: 95.3%; Kd [8]: 0.436 nM; koff [8]: 0.000127 s⁻¹; kon [8]: 291000 M⁻¹ s⁻¹
V1-SA3 (VHH, Humanized V1) VHH: EVQLVESGGGLVQPGGSLRLSCAASGRTFSSYTMGWFRQAPGKEREFVVAISKGGYKYDSVSLEARFTISRDNAKNTVYLQMNSLRAEDTAVYYCAATRAYGSSRLRLADTYEYWGQGTLVTVSS	26.7	93.5			
V30-2H-2m (VHH, Humanized V30) VHH: EVQLVESGGGLVQPGGSLRLSCAASGRTFSSYTMGWFRQAPGKEREFVVAISKGGYKYDAVSLEARFTISRDNSKNTVYLQMNSLRPEDTAVYYCAATRAYGSSRLRLAKTYEYWGQGTLVTVSS			5.64	94.7	
V1-com-87 (VHH, Humanized V1) VHH: EVQLVESGGGLVQPGGSLRLSCAASGRTFSSYTMGWFRQAPGKEREFVVAISKGGYKYDSVSLEARFTISRDNSKNTLYLQMNSLRPEDTAVYYCAATRAYGSSRLRLADTYEYWGQGTLVTVSS					Kd [2]: 0.252 nM; koff [2]: 9.08e-05 s⁻¹; kon [2]: 360000 M⁻¹ s⁻¹
V30-2H-87 (VHH, Humanized V30) VHH: EVQLVESGGGLVQPGGSLRLSCAASGRTFSSYTMGWFRQAPGKEREFVVAISKGGYKYDAVSLEARFTISRDNSKNTLYLQMNSLRPEDTAVYYCAATRAYGSSRLRLAKTYEYWGQGTLVTVSS			5.81	94.2	
V43-4m (VHH, Humanized V43) VHH: EVQLVESGGGLVQPGGSLRLSCAASGRTFTSYTMGWFRQAPGKEREFVVAISKGGYKYDSVSLEARFTISRDNAKNTVYLQMNSLRPEDTAVYYCAGTRAYGSSRLRLANTYEYWGQGTLVTVSS	35.5	89.3			
V30-2H-78 (VHH, Humanized V30) VHH: EVQLVESGGGLVQPGGSLRLSCAASGRTFSSYTMGWFRQAPGKEREFVVAISKGGYKYDAVSLEARFTISRDNSKNTVYLQMNSLRAEDTAVYYCAATRAYGSSRLRLAKTYEYWGQGTLVTVSS			4.97	95.5	
V43-1H-87 (VHH, Humanized V43) VHH: EVQLVESGGGLVQPGGSLRLSCAASGRTFSSYTMGWFRQAPGKEREFVVAISKGGYKYDSVSLEARFTISRDNSKNTLYLQMNSLRPEDTAVYYCAATRAYGSSRLRLANTYEYWGQGTLVTVSS			5.27	95.4	
V43-3H-87 (VHH, Humanized V43) VHH: EVQLVESGGGLVQPGGSLRLSCAASGRTFTSYTMGWFRQAPGKEREFVVAISKGGYKYDSVSLEARFTISRDNSKNTLYLQMNSLRPEDTAVYYCAGTRAYGSSRLRLANTYEYWGQGTLVTVSS			7.15	91.6	
V13-2m (VHH, Humanized V13 (CDR graft on humanized V1 frameworks)) VHH: EVQLVESGGGLVQPGGSLRLSCAASGRTFTSYTMGWFRQAPGKEREFVVAISKGGYKYDAVSLEARFTISRDNSKNTVYLQMNSLRPEDTAVYYCAGTRAYGSSRLRLADTYEYWGQGTLVTVSS	40.1	88.9			
V43-1H-2m (VHH, Humanized V43) VHH: EVQLVESGGGLVQPGGSLRLSCAASGRTFSSYTMGWFRQAPGKEREFVVAISKGGYKYDSVSLEARFTISRDNSKNTVYLQMNSLRPEDTAVYYCAATRAYGSSRLRLANTYEYWGQGTLVTVSS			5.99	94.5	
V43-3H-78 (VHH, Humanized V43) VHH: EVQLVESGGGLVQPGGSLRLSCAASGRTFTSYTMGWFRQAPGKEREFVVAISKGGYKYDSVSLEARFTISRDNSKNTVYLQMNSLRAEDTAVYYCAGTRAYGSSRLRLANTYEYWGQGTLVTVSS			8.63	93.4	

— patent EP4582447A1 (Quaerite Biopharm Research (Beijing) Co., Ltd., dated 2025)
